Reference: patent US20250381254A1, “Augmented Acid Alpha-Glucosidase For The Treatment Of Pompe Disease” (Amicus Therapeutics, Inc., priority 2015, published 2025)
Like-named read-outs stand apart in the source and are kept apart here. Values belong to the substance of their own block, whether it stands above or below them.

How the values were obtained:
cynomolgus monkeys = test: 13-week toxicity study in cynomolgus monkeys; settings: once every other week for 13 weeks
Method: Animals were acclimated to the study room for 18 (females) to 19 (males) days. On the final day of acclimation, animals weighed between 2.243 kg and 5.413 kg and were 2 to 3 years of age.
ATB200 is formulated in 25 mM sodium phosphate buffer, pH 6 containing 2.92 mg/mL sodium chloride, 20 mg/mL mannitol, and 0.5 mg/mL polysorbate 80 (formulation buffer). Test article (ATB200 or miglustat) and control article/vehicle (formulation buffer) were administered once every other week for 13 weeks, starting on Day 1 and ending on Day 85. ATB200 and the control article/vehicle were administered by 2 hour (±10 minute) intravenous (IV) infusion at 0 mg/kg (Group 1, control article), 50 mg/kg (Group 2), or 100 mg/kg (Groups 3 and 5). Miglustat was administered nasogastrically in sterile water for injection, USP, at 25 mg/kg (Group 2) or 175 mg/kg (Groups 3 and 4), 30 minutes (±2 minutes) prior to the start of the infusion for ATB200, when given in combination. The dosing volume across all groups was 10 mL/kg.
Parameters assessed during the in-life phase of the study included body weights, food consumption, clinical observations, detailed clinical observations, physical examinations, electrocardiography, ophthalmic assessments, clinical pathology (hematology, coagulation, serum chemistry), anti-drug antibody (ADA) assessment, neutralizing ADA assessment, urinalysis, and plasma toxicokinetics (TK) for miglustat and ATB200 activity and total protein. Terminal necropsy of animals was performed on Day 99 (14 days after the last dose administration). At necropsy, gross observations and organ weights were recorded, and tissues were collected for microscopic examination.

Gaa knockout mice [1] = test: Exposure-response: glycogen levels in Gaa knockout mice
Method: Gaa knockout mice are administered acid α-glucosidase (ATB200) intravenously at doses of 5, 10 and 20 mg/kg, rising oral doses of miglustat (1, 3 and 10 mg/kg) concomitantly with intravenous doses of 5 or 10 mg/kg of ATB200 or rising oral doses of miglustat (1, 3, 5, 10, 20, and 30 mg/kg) concomitantly with intravenous doses of 20 mg/kg of ATB200.

[2] = tested on: Pompe fibroblasts and skeletal muscle myoblasts; test: Internalization by Pompe fibroblasts and skeletal muscle myoblasts; format: cell-based
[3] = human, in vivo
Method: This is an open-label, fixed-sequence, ascending-dose, first-in-human study to evaluate the safety, tolerability, and pharmacokinetics (PK) of intravenous (IV) recombinant acid α-glucosidase (ATB200, lyophilized powder reconstituted with sterile water for injection and diluted with 0.9% sodium chloride for injection) alone and when co-administered with oral miglustat (hard gelatin capsules, 65 mg). The study will be conducted in 2 stages. In Stage 1, safety, tolerability, and PK will be evaluated following sequential single ascending doses of ATB200, administered every 2 weeks as an approximately 4 hour intravenous infusion, for 3 dosing periods at 5, 10, and 20 mg/kg. In Stage 2, safety, tolerability, and PK will be evaluated following single- and multiple-ascending dose combinations: 20 mg/kg ATB200 co-administered every 2 weeks with 130 mg miglustat (two 65 mg capsules), taken orally 1 hour prior to an approximately 4 hour intravenous infusion of ATB200, for 3 doses followed by 20 mg/kg ATB200 co-administered with 260 mg miglustat (four 65 mg capsules), taken orally 1 hour prior to an approximately 4 hour intravenous infusion of ATB200, for 3 doses.

[4] = tested on: normal and Pompe fibroblast cell lines; test: Cellular uptake of rhGAA in fibroblasts; format: cell-based; settings: for concentration that saturates cellular receptors: 16-hr incubation
Method: The relative cellular uptake of ATB200 and Lumizyme® rhGAA were compared using normal and Pompe fibroblast cell lines. Comparisons involved 5-100 nM of ATB200 rhGAA according to the invention with 10-500 nM conventional rhGAA Lumizyme®. After 16-hr incubation, external rhGAA was inactivated with TRIS base and cells were washed 3-times with PBS prior to harvest. Internalized GAA measured by 4MU-α-Glucoside hydrolysis and was graphed relative to total cellular protein and the results appear in FIGS. 10A-B.

[5] = in vivo
Method: Pharmacokinetic data for acid α-glucosidase (ATB200), including sampling times, dosing history and plasma concentrations of acid α-glucosidase, is obtained from mice, rats and monkeys administered ATB200 by intravenous injection. […] Modeling and simulations are performed using Phoenix® NLME™ v1.3. Compartmental PK models are constructed to assess the PK of ATB200 in plasma. The models include: • Description of the relationships between plasma concentration and time; • A variance component characterizing between- and within-animal variability in model parameters; and • A component describing uncertainty in the state of knowledge about critical model components.
PK is assumed to be species independent and is scaled according to a generalized Dedrick approach that scales the disposition according to the power of an animal's body weight:
where CL=systemic clearance, V=volume of distribution, BW=body weight, p=peripheral, b and d=allometric exponents, and a and c=typical values for a BW=1. […] Nominal BW (0.025, 0.25 and 2.5 kg) are used in the analyses.
The model includes a theoretical allometric component accounting for difference in body weight across animal species on clearance (CL) and volume of distribution (Vc).

CIMPR [6] = target: T1, CIMPR (Homo sapiens, UniProt P11717); test: CIMPR plate binding assay
Method: Briefly, CIMPR-coated plates were used to capture GAA. Varying concentrations of rhGAA were applied to the immobilized receptor and unbound rhGAA was washed off. The amount of remaining rhGAA was determined by GAA activity.

[7] = Clinical study: ALT, AST and CPK biomarkers; format: in vivo, human
Method: Alanine aminotransferase (ALT), aspartate aminotransferase (AST) and creatine phosphokinase (CPK) levels were monitored in human patients that switched from Lumizyme® to ATB200. The patients received ascending doses of ATB200 (5, 10 and 20 mg/kg) followed by co-administration of ATB200 (20 mg/kg) and miglustat (130 and 260 mg). High levels of CPK enzyme may indicate injury or stress to muscle tissue, heart, or brain. Elevated ALT and AST are markers of liver and muscle damage from Pompe disease, respectively.

[8] = human, in vivo; remark: listed apart in the source
From the text: The study will be conducted in 2 stages.
This stage will include: • Safety: review of AEs, including serious adverse events (SAEs) and IARs; review of concomitant medications and nondrug therapies; vital signs (HR, RR, BP, and temperature); brief PE; ECG; clinical safety laboratory assessments (serum chemistry, hematology, and urinalysis); and urine pregnancy test • PD: urinary Hex4 and serum CPK • Immunological: blood samples for anti-recombinant acid α-glucosidase antibody titers (anti-recombinant acid α-glucosidase total and neutralizing antibody titers and antibody cross-reactivity with alglucosidase alfa) and blood samples for measurement of pro-inflammatory cytokines and other biomarkers of immune system activation. If needed, IgE measurements will also be performed. • Serial 24-hour pharmacokinetics (PK): During Period 1 (Visit 3, Day 1), Period 2 (Visit 4, Day 15), and Period 3 (Visit 5, Day 29), blood sampling for plasma acid α-glucosidase activity levels and total acid α-glucosidase protein concentrations will be taken for all subjects.
• Safety: review of AEs, including SAEs and IARs; review of concomitant medications and nondrug therapies; vital signs (HR, RR, BP, and temperature); weight; PE; ECG; clinical safety laboratory assessments (serum chemistry, hematology, and urinalysis); and urine pregnancy test • PD: urinary Hex4 and serum CPK • Immunological: blood samples for anti-recombinant acid α-glucosidase antibody titers (anti-recombinant acid α-glucosidase total and neutralizing antibody titers, and antibody cross-reactivity with alglucosidase alfa) and blood samples for measurement of pro-inflammatory cytokines and other biomarkers of immune system activation. If needed, IgE measurements will also be performed. • Serial 24-hour PK: During Period 4 (Visit 6, Day 43 and Visit 8, Day 71) and Period 5 (Visit 9, Day 85 and Visit 11, Day 113), blood sampling for plasma acid α-glucosidase activity levels, total acid α-glucosidase protein concentrations, and miglustat concentrations will be taken for all subjects. […]

Gaa knockout mice [9] = test: Muscle physiology and morphology in Gaa-knockout mice; format: in vivo, mouse; settings: 20 mg/kg rhGAA IV every other week, miglustat 10 mg/kg oral where co-administered
[10] = in vivo, iv, 100 mg/kg
[11] = cynomolgus monkey, in vivo
Method: Total anti-drug antibody (ADA) and neutralizing antibody (NAb) levels are measured in plasma. Blood samples (approximately 1.6 mL) were collected in K2EDTA tubes from all animals once during acclimation, predose (prior to administration of miglustat) and on Days 1, 85 and 99. Samples were maintained on wet ice until processed. Plasma was obtained by centrifugation at 2° C. to 8° C. and aliquots (approximately 0.2 mL) were transferred to polypropylene vials, and stored frozen at −60° C. to −86° C. within one hour from blood collection. Analysis of samples for ADA was conducted on samples collected from animals in Groups 1, 2, 3, and 5 (miglustat only samples were not analyzed). Analysis for neutralizing antibodies was conducted using an enzyme assay with the fluorogenic substrate 4-methylumbelliferyl-α-D-glucopyranoside (4MU-Glc).

Gaa knockout mice [12] = test: Glycogen clearance, ATB200 vs Lumizyme, two IV bolus administrations; format: in vivo, mouse; settings: ATB200 10 and 20 mg/kg; skeletal muscles
From the text: Animals are given two IV bolus administrations (every other week); tissues are harvested two weeks after the last dose and analyzed for acid α-glucosidase activity and glycogen content.

[13] = cynomolgus monkey, in vivo; remark: listed apart in the source
Method: ATB200 toxicokinetics were measured in blood samples collected in K2EDTA tubes from animals on Days 1 and 85 at the following time points: • For Groups 1, 2, 3, and 5: Predose (prior to administration of miglustat); 1 hour from initiation of infusion; 2 hours from initiation of infusion; 2.5 hours from initiation of infusion; 3 hours from initiation of infusion; 4 hours from initiation of infusion; 6 hours from initiation of infusion; 12 hours from initiation of infusion; 26 hours from initiation of infusion; 168 hours from initiation of infusion; and 336 hours from initiation of infusion (collected prior to dosing on Day 15); and • For Group 4: Predose (prior to administration of miglustat); 1.5 hour post administration of miglustat; 2.5 hours post administration of miglustat; 3.5 hours post administration of miglustat; 4.5 hours post administration of miglustat; 6.5 hours post administration of miglustat; 12.5 hours post administration of miglustat; 26.5 hours post administration of miglustat; 168.5 hours post administration of miglustat; and 336.5 hours post administration of miglustat (collected prior to dosing on Day 15). […]
Total ATB200 protein was measured by liquid chromatography coupled to tandem mass spectrometry (LC-MS/MS). […]

[14] = in vivo; remark: listed apart in the source
[15] = cited from earlier work
CIMPR [16] = target: T1, CIMPR; test: CIMPR affinity chromatography of rhGAA; format: binding; settings: fraction of total enzyme by GAA activity
Method: To evaluate the ability of the rhGAA in Myozyme® and Lumizyme®, the only currently approved treatments for Pompe disease, these rhGAA preparations were injected onto a CIMPR column (which binds rhGAA having M6P groups) and subsequently eluted with a free […] gradient. Fractions were collected in 96-well plate and GAA activity assayed by 4MU—α-glucose substrate. The relative amounts of bound and unbound rhGAA were determined based on GAA activity and reported as the fraction of total enzyme.

Gaa KO mice = test: Muscle function in Gaa KO mice, 12 biweekly administrations; format: in vivo, mouse; settings: 20 mg/kg ERT, 10 mg/kg miglustat, FIGS. 33A-33B
From the text: In FIG. 33A, * indicates statistically significant compared to Lumizyme® alone (p<0.05, 2-sided t-test). In FIGS. 34A-34G, * indicates statistically significant compared to Lumizyme® alone (p<0.05, multiple comparison using Dunnett's method under one-way ANOVA analysis).

[17] = one patient, switched from Lumizyme®, ATB200 5, 10, 20 mg/kg then 20 mg/kg + miglustat 130 and 260 mg

T1 sequence (P11717 41-2491, species assumed): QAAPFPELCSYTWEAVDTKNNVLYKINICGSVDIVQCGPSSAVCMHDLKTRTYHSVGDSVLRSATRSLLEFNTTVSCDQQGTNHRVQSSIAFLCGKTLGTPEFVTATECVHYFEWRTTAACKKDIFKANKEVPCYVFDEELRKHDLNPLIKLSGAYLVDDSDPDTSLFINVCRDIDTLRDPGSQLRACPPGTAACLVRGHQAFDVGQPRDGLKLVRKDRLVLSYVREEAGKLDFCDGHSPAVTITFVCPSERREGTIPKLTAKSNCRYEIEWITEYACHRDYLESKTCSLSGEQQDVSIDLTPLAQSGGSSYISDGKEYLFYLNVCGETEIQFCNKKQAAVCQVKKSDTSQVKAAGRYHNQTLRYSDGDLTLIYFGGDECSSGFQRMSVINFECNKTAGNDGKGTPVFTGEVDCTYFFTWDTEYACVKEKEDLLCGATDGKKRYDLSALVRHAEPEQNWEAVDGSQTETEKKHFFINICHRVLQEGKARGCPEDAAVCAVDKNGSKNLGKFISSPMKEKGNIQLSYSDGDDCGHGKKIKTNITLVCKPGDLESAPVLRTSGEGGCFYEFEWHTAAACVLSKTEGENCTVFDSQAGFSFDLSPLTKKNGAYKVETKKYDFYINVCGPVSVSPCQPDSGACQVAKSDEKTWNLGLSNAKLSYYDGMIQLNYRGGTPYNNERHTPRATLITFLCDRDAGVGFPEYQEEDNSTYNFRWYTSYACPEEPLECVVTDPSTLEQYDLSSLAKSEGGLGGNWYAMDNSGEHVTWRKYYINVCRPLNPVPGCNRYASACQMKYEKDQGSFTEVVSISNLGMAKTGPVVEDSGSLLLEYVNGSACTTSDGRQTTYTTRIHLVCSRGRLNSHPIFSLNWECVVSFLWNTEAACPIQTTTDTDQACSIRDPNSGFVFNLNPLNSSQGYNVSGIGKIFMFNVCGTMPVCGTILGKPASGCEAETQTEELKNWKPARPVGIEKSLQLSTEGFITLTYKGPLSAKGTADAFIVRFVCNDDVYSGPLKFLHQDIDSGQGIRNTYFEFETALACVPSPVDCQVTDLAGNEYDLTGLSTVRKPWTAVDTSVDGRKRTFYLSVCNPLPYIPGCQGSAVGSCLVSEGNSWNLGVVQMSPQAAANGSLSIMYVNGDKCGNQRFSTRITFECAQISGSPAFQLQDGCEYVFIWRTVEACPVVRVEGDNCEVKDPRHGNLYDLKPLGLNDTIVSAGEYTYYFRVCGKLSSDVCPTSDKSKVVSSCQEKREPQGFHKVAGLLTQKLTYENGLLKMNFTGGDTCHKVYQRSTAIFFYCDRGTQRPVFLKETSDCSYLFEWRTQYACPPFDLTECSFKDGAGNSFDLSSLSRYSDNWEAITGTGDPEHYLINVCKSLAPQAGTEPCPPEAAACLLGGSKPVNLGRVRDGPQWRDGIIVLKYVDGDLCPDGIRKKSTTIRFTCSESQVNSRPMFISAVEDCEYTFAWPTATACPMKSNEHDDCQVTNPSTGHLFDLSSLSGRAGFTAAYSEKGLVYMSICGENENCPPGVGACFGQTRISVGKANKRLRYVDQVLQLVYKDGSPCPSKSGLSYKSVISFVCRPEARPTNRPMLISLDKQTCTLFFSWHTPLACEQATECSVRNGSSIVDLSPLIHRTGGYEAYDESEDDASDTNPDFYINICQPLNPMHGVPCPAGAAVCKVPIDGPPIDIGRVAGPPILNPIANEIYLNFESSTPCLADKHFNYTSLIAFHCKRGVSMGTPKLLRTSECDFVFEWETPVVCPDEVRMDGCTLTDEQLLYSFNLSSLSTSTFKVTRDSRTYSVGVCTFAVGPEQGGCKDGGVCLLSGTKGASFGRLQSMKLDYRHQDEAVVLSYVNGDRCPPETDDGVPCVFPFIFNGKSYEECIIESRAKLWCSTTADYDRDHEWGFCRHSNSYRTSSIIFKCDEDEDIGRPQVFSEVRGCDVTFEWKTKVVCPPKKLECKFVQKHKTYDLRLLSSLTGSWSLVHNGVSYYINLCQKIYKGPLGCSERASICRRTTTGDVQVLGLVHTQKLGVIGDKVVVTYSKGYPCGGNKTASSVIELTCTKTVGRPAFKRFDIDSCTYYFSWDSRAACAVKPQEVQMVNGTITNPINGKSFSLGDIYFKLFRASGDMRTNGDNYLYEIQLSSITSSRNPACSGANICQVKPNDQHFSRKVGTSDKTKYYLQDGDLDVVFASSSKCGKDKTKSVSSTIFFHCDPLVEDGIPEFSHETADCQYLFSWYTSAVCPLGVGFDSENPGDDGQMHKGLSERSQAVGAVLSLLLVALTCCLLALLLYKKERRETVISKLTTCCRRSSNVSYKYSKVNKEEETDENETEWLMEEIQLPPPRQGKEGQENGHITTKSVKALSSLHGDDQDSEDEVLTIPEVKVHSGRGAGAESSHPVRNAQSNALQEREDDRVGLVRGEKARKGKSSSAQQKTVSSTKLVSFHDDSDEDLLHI

Substance: ATB200
test article-related changes (survival, clinical observations, body weight, ECG, clinical pathology, organ weights, histopathology) (cynomolgus monkeys): no changes attributable
No-Observed-Adverse-Effect-Level (NOAEL) (cynomolgus monkeys; 2 hour infusion, with or without miglustat, highest dosage tested): 100 mg/kg/infusion
tissue glycogen depletion (Gaa knockout mice [1]; 5, 10 and 20 mg/kg IV): deplete tissue glycogen in acid α-glucosidase (Gaa) knockout mice in a dose-dependent fashion
Glycogen, median (Gaa knockout mice [1]; ATB200 5 mg/kg monotherapy, Study #1): 307 μg/mg protein
Glycogen, median (Gaa knockout mice [1]; ATB200 5 mg/kg monotherapy, overall median): 307 μg/mg protein
Glycogen, median (Gaa knockout mice [1]; ATB200 10 mg/kg monotherapy, Study #1): 259 μg/mg protein
Glycogen, median (Gaa knockout mice [1]; ATB200 10 mg/kg monotherapy, overall median): 259 μg/mg protein
Glycogen, median (Gaa knockout mice [1]; ATB200 20 mg/kg monotherapy, Study #1): 157 μg/mg protein
Glycogen, median (Gaa knockout mice [1]; ATB200 20 mg/kg monotherapy, Study #3): 195 μg/mg protein
Glycogen, median (Gaa knockout mice [1]; ATB200 20 mg/kg monotherapy, overall median): 181 μg/mg protein
Kupdate (internalization) [2]: 7 to 14 nM
adverse events [3]: generally mild and transient
infusion-associated reactions [3]: no infusion-associated reactions
serious adverse events [3]: no serious adverse events (SAEs)
concentration that saturates cellular receptors [4]: about 20 nM
internalization into normal and Pompe fibroblast cells ([4]; vs Lumizyme®): internalized to a greater degree than conventional Lumizyme® rhGAA
Central volume of distribution (Vc) [5]: 0.0101 × (BW/0.25)^0.83 L
Peripheral clearance (CLd) [5]: 0.00029 × (BW/0.25)^0.78 L/h
Peripheral volume of distribution (V2) [5]: 0.000653 × (BW/0.25)^0.83 L
Systemic clearance (CL) [5]: 0.00957 × (BW/0.25)^0.78 L/h
CIMPR binding compared with Lumizyme® (CIMPR [6]; FIG. 9A): bound to CIMPR significantly better than Lumizyme®
Kd (CIMPR [6]; M6P receptor plate binding assays): 2 to 4 nM
reduction in ALT ([7]; another patient, same regimen): 11%
reduction in AST ([7]; another patient, same regimen): 22%
reduction in CPK ([7]; another patient, same regimen): 31%
reduction in ALT [7, 17]: 34%
reduction in AST [7, 17]: 28%
reduction in CPK [7, 17]: 44%
Volume of distribution [8]: 3.5 to 5.7 L
dose proportionality of exposures [8]: slightly greater than dose proportional exposures
tmax (median) ([8]; 20 mg/kg): 4.0 h
lysosome proliferation (LAMP1) (Gaa knockout mice [9]; FIG. 20): reduction in lysosome proliferation in heart, diaphragm and skeletal muscle (soleus) tissue compared to conventional treatment with alglucosidase alfa
punctate glycogen levels (PAS) (Gaa knockout mice [9]; FIG. 21): reduction in punctate glycogen levels in heart and skeletal muscle (soleus) tissue compared to conventional treatment with alglucosidase alfa
AUC [10]: 5330 µg·h/mL
anti-drug antibody (ADA) incidence [11]: 100%
glycogen reduction vs Lumizyme® 20 mg/kg (Gaa knockout mice [12]): significantly better reduction of glycogen levels in skeletal muscles than Lumizyme®
mean terminal half-life (t1/2β) [13]: 1.70 to 11.1 h
time to maximal ATB200 plasma concentration (tmax) [13]: approximately 2 hours
apparent plasma half-life t1/2 [14]: ~45 m

rhGAA activity eluted prior to addition of M6P (did not bind to the CIMPR) (CIMPR [16]): 78%
rhGAA eluted with M6P / containing M6P (CIMPR binding) (CIMPR [16]): 22%
Substance: Lumizyme®: conventional rhGAA product (alglucosidase alfa), Genzyme
concentration that saturates cellular receptors [4]: about 250 nM
uptake efficiency constant (Kuptake) ([4]; extrapolated, FIG. 10C): 56 nM
AUC ([15]; 20 mg/kg dose, reported): ~2700 µg·h/mL
systemic clearance ([15]; Week 52, repeated dosing, late-stage Pompe disease, product label): 601 mL/h
half-life ([15]; product label): 2.4 h
functional muscle strength (grip strength and wire hang tests) (Gaa KO mice): observed to decline
